Here are results for 2 substances from PMC8313286.

What is called stoichiometry N is a count of units in the complex or per binding partner.

Test [1] has as its target RepB, replication initiator of megaplasmid pMP7017 (Bifidobacterium breve JCM7017 (megaplasmid pMP7017)). In words: SEC-MALS. In general terms: SEC sorts molecules by how far they enter the pores of the column.
Test [2] concerns the target RepA, putative replicase of megaplasmid pMP7017 (Bifidobacterium breve JCM7017 (megaplasmid pMP7017)). Put plainly: SEC-MALS.

In test [1], “RepB, replication initiator of megaplasmid pMP7017 (natural protein)” came in with a percent of total sample in the dimer peak of 97% and a stoichiometry N of 2.
In test [2], “RepA, putative replicase of megaplasmid pMP7017 (natural protein)” came in with a percent of total protein in the dimer peak of 67.3%, a percent of total protein in the presumed octamer peak of 15.7% and a percent of total protein in the presumed tetramer peak of 17%.
